B1: Proto-oncogene tyrosine-protein kinase LCK (Mus musculus), P06240 (parent)
chain: MGCVCSSNPEDDWMENIDVCENCHYPIVPLDSKISLPIRNGSEVRDPLVTYEGSLPPASPLQDNLVIALHSYEPSHDGDLGFEKGEQLRILEQSGEWWKAQSLTTGQEGFIPFNFVAKANSLEPEPWFFKNLSRKDAERQLLAPGNTHGSFLIRESESTAGSFSLSVRDFDQNQGEVVKHYKIRNLDNGGFYISPRITFPGLHDLVRHYTNASDGLCTKLSRPCQTQKPQKPWWEDEWEVPRETLKLVERLGAGQFGEVWMGYYNGHTKVAVKSLKQGSMSPDAFLAEANLMKQLQHPRLVRLYAVVTQEPIYIITEYMENGSLVDFLKTPSGIKLNVNKLLDMAAQIAEGMAFIEEQNYIHRDLRAANILVSDTLSCKIADFGLARLIEDNEYTAREGAKFPIKWTAPEAINYGTFTIKSDVWSFGILLTEIVTHGRIPYPGMTNPEVIQNLERGYRMVRPDNCPEELYHLMMLCWKERPEDRPTFDYLRSVLDDFFTATEGQYQPQP

Variants of: B1
Settings: with khdr1_human KHDRBS1, Q07666
Sequence of khdr1_human KHDRBS1, Q07666 (Q07666 whole entry): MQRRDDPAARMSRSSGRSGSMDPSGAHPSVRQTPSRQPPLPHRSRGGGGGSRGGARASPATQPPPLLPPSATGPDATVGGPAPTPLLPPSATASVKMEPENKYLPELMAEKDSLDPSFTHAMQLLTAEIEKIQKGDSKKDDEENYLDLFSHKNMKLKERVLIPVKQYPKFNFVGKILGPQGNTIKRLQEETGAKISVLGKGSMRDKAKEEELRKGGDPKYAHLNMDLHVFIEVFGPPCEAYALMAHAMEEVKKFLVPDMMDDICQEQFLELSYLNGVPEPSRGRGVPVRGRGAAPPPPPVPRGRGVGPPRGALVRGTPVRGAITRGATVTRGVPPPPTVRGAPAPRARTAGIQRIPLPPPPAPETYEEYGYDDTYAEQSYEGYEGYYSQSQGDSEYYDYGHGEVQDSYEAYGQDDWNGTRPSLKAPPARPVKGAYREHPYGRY

effect of a mutation on the interaction	Variant
decreasing interaction	R154K

Variants of: B1
Settings: with khdr1_human KHDRBS1, Q07666
Remark: another data set of the same source

effect of a mutation on the interaction	Variant
decreasing interaction	P112K

— IntAct's records for PubMed 9045636
